Source: patent publication US20140127212A1 (AstraZeneca / MedImmune, published 2014)

What was measured:
[1] = molecular target: T1, cynomolgus IgE (recombinant chimaeric D12 variable region and cynomolgus IgE constant region) (cynomolgus monkey (constant region); …); assay: cell-based or functional assay
[2] = molecular target: T1, cynomolgus IgE (recombinant chimaeric …); assay: SPR BIAcore; IgG captured on protein G', IgE analyte, bivalent analyte fit; geomean
[3] = molecular target: human IgE (preparation not stated, or 'Calbiochem or U266-derived') (human, UniProt P01854-1 1-428); assay: cell-based or functional assay
[4] = molecular target: T2, cynomolgus IgE Cε3-Cε4 domain, C-terminally tagged with FLAG His10 (cynomolgus monkey); assay: DELFIA epitope competition; competitor vs biotinylated IgE on immobilised IgG
T2 construct: also called Cynomolgus Ce3-4 FLAG His10
T2 chain: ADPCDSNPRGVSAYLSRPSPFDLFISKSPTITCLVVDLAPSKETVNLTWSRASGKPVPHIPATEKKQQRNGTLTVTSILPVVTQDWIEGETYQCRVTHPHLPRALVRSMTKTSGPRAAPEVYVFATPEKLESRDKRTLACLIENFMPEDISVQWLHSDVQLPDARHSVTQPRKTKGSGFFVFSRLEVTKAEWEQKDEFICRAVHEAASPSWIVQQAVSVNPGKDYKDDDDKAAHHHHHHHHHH

[5] = molecular target: T1, cynomolgus IgE (recombinant chimaeric …); assay: HTRF competition; scFv titrated vs Eu-cryptate cynomolgus IgE binding to human FcεRI-Fc; geomean
[6] = molecular target: MOv18 IgE; assay: cell-based or functional assay

T1 sequence (heavy, as listed by the source limits assumed, chain 1 of 2): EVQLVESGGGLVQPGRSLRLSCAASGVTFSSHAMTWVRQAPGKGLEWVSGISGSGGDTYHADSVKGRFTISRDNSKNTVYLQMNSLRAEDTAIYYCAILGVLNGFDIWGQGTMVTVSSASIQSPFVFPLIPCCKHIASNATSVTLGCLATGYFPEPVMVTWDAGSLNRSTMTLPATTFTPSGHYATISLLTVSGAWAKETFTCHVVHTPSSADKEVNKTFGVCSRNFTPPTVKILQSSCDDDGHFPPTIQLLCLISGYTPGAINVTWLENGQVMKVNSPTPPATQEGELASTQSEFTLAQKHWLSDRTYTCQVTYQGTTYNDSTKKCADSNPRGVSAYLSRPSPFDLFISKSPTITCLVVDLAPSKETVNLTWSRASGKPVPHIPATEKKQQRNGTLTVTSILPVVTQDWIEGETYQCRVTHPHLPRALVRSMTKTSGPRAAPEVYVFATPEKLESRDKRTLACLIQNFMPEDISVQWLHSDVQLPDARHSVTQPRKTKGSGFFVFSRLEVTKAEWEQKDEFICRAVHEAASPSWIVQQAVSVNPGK
T1 sequence (light, as listed by the source limits assumed, chain 2 of 2): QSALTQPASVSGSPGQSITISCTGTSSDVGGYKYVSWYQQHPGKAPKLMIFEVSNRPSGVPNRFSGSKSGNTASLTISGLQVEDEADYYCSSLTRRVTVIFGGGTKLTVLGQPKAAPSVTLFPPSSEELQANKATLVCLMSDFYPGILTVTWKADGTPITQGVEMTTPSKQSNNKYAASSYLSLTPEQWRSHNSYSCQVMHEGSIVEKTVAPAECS
Chain of human IgE (preparation not stated, or 'Calbiochem or U266-derived') (P01854 other isoform, or with tags, fused parts or gaps): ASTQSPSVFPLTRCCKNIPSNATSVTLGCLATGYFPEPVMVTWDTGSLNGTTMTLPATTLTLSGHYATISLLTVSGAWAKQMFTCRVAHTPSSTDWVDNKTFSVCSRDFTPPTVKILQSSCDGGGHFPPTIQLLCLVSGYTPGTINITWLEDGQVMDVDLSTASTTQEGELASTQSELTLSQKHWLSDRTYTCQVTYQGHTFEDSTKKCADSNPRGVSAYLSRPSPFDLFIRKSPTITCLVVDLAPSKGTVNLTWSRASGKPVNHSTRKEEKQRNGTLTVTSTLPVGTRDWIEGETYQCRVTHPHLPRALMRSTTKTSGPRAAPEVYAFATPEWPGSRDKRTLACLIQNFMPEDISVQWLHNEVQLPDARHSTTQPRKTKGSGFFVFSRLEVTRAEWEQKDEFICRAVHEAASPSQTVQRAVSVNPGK

| Binder | RBL-ER51 calcium signalling IC50 (nM), Cynomolgus IgE, geomean [1] [nM] | Kd [2] [nM] | other results |
| --- | --- | --- | --- |
| Antibody 4 IgG (antibody, V domains shown, Whole human IgG (section 1.4, IgG1)) VH: QVQLVQSGAEVKKPGATVKLSCKVYGYIFTDYNIYWVRQAPGKGLEWMGLIDPDNGETFYAEKFQGRATMTADTSSDRAYMELTSLTFEDTATYYCATVMGKWIKGGYDYWGRGTLVTVSS VL: QSVLTQPPSVSGAPGQRVTISCTGSSSNIGAGYDVHWYQQLPGTAPKLLIYDNFNRPSGVPDRFSGSKSGTSASLAIIGLQTEDEADYYCQSYDSRGGHSPFGTGTKLTVL | 0.151 | 8 | – |
| Antibody 1 IgG (antibody, V domains shown, Whole human IgG (section 1.4, IgG1); also called parent antibody) VH: QVQLVQSGAEVKKPGATVKLSCKVYGYIFTDYNIYWVRQAPGKGLEWMGLIDPDNGETFYAEKFQGRATMTADTSSDRAYMELTSLTFEDTATYYCATVLHRRLKGGYDYWGRGTLVTVSS VL: QSVLTQPPSVSGAPGQRVTISCTGSSSNIGAGYDVHWYQQLPGTAPKLLIYDNFNRPSGVPDRFSGSKSGTSASLAIIGLQTEDEADYYCQSYDSSLSGSLFGTGTKLTVL | – | – | IgE induced calcium signalling of RBL-ER51 cells, IC50 [3]: 34 nM; binding result [4]: binds |
| Antibody 18 IgG (antibody, V domains shown) VH: QVQLVQSGAEVKKPGATVKLSCKVYGYIFTDYNIYWVRQAPGKGLEWMGLIDPDNGETFYAEKFQGRATMTADTSSDRAYMELTSLTFEDTATYYCATVLLRSAKGGYDYWGRGTLVTVSS VL: QSVLTQPPSVSGAPGQRVTISCTGSSSNIGAGYDVHWYQQLPGTAPKLLIYDNFNRPSGVPDRFSGSKSGTSASLAIIGLQTEDEADYYCQSYDSHLQLSPFGTGTKLTVL | 2.97 | – | – |
| Antibody 16 IgG (antibody, V domains shown, Whole human IgG (section 1.4, IgG1)) VH: QVQLVQSGAEVKKPGATVKLSCKVYGYIFTDYNIYWVRQAPGKGLEWMGLIDPDNGETFYAEKFQGRATMTADTSSDRAYMELTSLTFEDTATYYCATVSLKSAKGGYDYWGRGTLVTVSS VL: QSVLTQPPSVSGAPGQRVTISCTGSSSNIGAGYDVHWYQQLPGTAPKLLIYDNFNRPSGVPDRFSGSKSGTSASLAIIGLQTEDEADYYCQSYDSRHHHAPFGTGTKLTVL | 4.38 | 62 | – |
| Antibody 5 IgG (antibody, V domains shown, Whole human IgG (section 1.4, IgG1)) VH: QVQLVQSGAEVKKPGATVKLSCKVYGYIFTDYNIYWVRQAPGKGLEWMGLIDPDNGETFYAEKFQGRATMTADTSSDRAYMELTSLTFEDTATYYCATVMGKWIKGGYDYWGRGTLVTVSS VL: QSVLTQPPSVSGAPGQRVTISCTGSSSNIGAGYDVHWYQQLPGTAPKLLIYDNFNRPSGVPDRFSGSKSGTSASLAIIGLQTEDEADYYCQSYDSTKHTSPFGTGTKLTVL | 0.181 | 7.9 | – |
| Antibody 27 scFv (scFv, V domains shown, not shown: small tags and cut ends, Purified scFv) VH: QVQLVQSGAEVKKPGATVKLSCKVYGYIFTDYNIYWVRQAPGKGLEWMGLIDPDNGETFYAEKFQGRATMTADTSSDRAYMELTSLTFEDTATYYCATVSLKEAKGGYDYWGRGTLVTVSS VL: QSVLTQPPSVSGAPGQRVTISCTGSSSNIGAGYDVHWYQQLPGTAPKLLIYDNFNRPSGVPDRFSGSKSGTSASLAIIGLQTEDEADYYCQSYDSPTQTSPFGTGTKLTVL | – | – | IC50 [5]: 117 nM |
| Antibody 23 IgG (antibody, V domains shown, Whole human IgG (section 1.4, IgG1)) VH: QVQLVQSGAEVKKPGATVKLSCKVYGYIFTDYNIYWVRQAPGKGLEWMGLIDPDNGETFYAEKFQGRATMTADTSSDRAYMELTSLTFEDTATYYCATVMGKWIKGGYDYWGRGTLVTVSS VL: QSVLTQPPSVSGAPGQRVTISCTGSSSNIGAGYDVHWYQQLPGTAPKLLIYDNFNRPSGVPDRFSGSKSGTSASLAIIGLQTEDEADYYCQSYDSHHLYSSFGTGTKLTVL | 0.523 | 4.3 | – |
| Antibody 19 IgG (antibody, V domains shown, Whole human IgG (section 1.4, IgG1)) VH: QVQLVQSGAEVKKPGATVKLSCKVYGYIFTDYNIYWVRQAPGKGLEWMGLIDPDNGETFYAEKFQGRATMTADTSSDRAYMELTSLTFEDTATYYCATVMGKWIKGGYDYWGRGTLVTVSS VL: QSVLTQPPSVSGAPGQRVTISCTGSSSNIGAGYDVHWYQQLPGTAPKLLIYDNFNRPSGVPDRFSGSKSGTSASLAIIGLQTEDEADYYCQSYDSTLSHSPFGTGTKLTVL | 0.111 | 7.9 | – |
| Antibody 8 IgG (antibody, V domains shown, Whole human IgG (section 1.4, IgG1)) VH: QVQLVQSGAEVKKPGATVKLSCKVYGYIFTDYNIYWVRQAPGKGLEWMGLIDPDNGETFYAEKFQGRATMTADTSSDRAYMELTSLTFEDTATYYCATVLGRWIKGGYDYWGRGTLVTVSS VL: QSVLTQPPSVSGAPGQRVTISCTGSSSNIGAGYDVHWYQQLPGTAPKLLIYDNFNRPSGVPDRFSGSKSGTSASLAIIGLQTEDEADYYCQSYDSPTHTSPFGTGTKLTVL | 0.188 | 6.3 | – |
| Antibody 12 IgG (antibody, V domains shown, Whole human IgG (section 1.4, IgG1)) VH: QVQLVQSGAEVKKPGATVKLSCKVYGYIFTDYNIYWVRQAPGKGLEWMGLIDPDNGETFYAEKFQGRATMTADTSSDRAYMELTSLTFEDTATYYCATVMGKWIKGGYDYWGRGTLVTVSS VL: QSVLTQPPSVSGAPGQRVTISCTGSSSNIGAGYDVHWYQQLPGTAPKLLIYDNFNRPSGVPDRFSGSKSGTSASLAIIGLQTEDEADYYCQSYDSSIDHSPFGTGTKLTVL | 0.334 | 230 | – |
| Antibody 28 scFv (scFv, V domains shown, not shown: small tags and cut ends, Purified scFv) VH: QVQLVQSGAEVKKPGATVKLSCKVYGYIFTDYNIYWVRQAPGKGLEWMGLIDPDNGETFYAEKFQGRATMTADTSSDRAYMELTSLTFEDTATYYCATVMGKWIKGGYDYWGRGTLVTVSS VL: QSVLTQPPSVSGAPGQRVTISCTGSSSNIGAGYDVHWYQQLPGTAPKLLIYDNFNRPSGVPDRFSGSKSGTSASLAIIGLQTEDEADYYCQSYDSSSLHSPFGTGTKLTVL | – | – | IC50 [5]: 7 nM |
| Antibody 20 IgG (antibody, V domains shown, Whole human IgG (section 1.4, IgG1)) VH: QVQLVQSGAEVKKPGATVKLSCKVYGYIFTDYNIYWVRQAPGKGLEWMGLIDPDNGETFYAEKFQGRATMTADTSSDRAYMELTSLTFEDTATYYCATVMGKWIKGGYDYWGRGTLVTVSS VL: QSVLTQPPSVSGAPGQRVTISCTGSSSNIGAGYDVHWYQQLPGTAPKLLIYDNFNRPSGVPDRFSGSKSGTSASLAIIGLQTEDEADYYCQSYDSSTSSSPFGTGTKLTVL | 0.31 | 10.5 | – |
| Antibody 6 IgG (antibody, V domains shown, Whole human IgG (section 1.4, IgG1)) VH: QVQLVQSGAEVKKPGATVKLSCKVYGYIFTDYNIYWVRQAPGKGLEWMGLIDPDNGETFYAEKFQGRATMTADTSSDRAYMELTSLTFEDTATYYCATVMGKWIKGGYDYWGRGTLVTVSS VL: QSVLTQPPSVSGAPGQRVTISCTGSSSNIGAGYDVHWYQQLPGTAPKLLIYDNFNRPSGVPDRFSGSKSGTSASLAIIGLQTEDEADYYCQSYDSTMRHGPFGTGTKLTVL | 0.168 | 3.7 | – |
| Antibody 13 IgG (antibody, V domains shown, Whole human IgG (section 1.4, IgG1)) VH: QVQLVQSGAEVKKPGATVKLSCKVYGYIFTDYNIYWVRQAPGKGLEWMGLIDPDNGETFYAEKFQGRATMTADTSSDRAYMELTSLTFEDTATYYCATVMGKWIKGGYDYWGRGTLVTVSS VL: QSVLTQPPSVSGAPGQRVTISCTGSSSNIGAGYDVHWYQQLPGTAPKLLIYDNFNRPSGVPDRFSGSKSGTSASLAIIGLQTEDEADYYCQSYDSNILYSPFGTGTKLTVL | 0.244 | 9.9 | – |
| Antibody 28 IgG (antibody, V domains shown, Whole human IgG (section 1.4, IgG1)) VH: QVQLVQSGAEVKKPGATVKLSCKVYGYIFTDYNIYWVRQAPGKGLEWMGLIDPDNGETFYAEKFQGRATMTADTSSDRAYMELTSLTFEDTATYYCATVMGKWIKGGYDYWGRGTLVTVSS VL: QSVLTQPPSVSGAPGQRVTISCTGSSSNIGAGYDVHWYQQLPGTAPKLLIYDNFNRPSGVPDRFSGSKSGTSASLAIIGLQTEDEADYYCQSYDSSSLHSPFGTGTKLTVL | 0.253 | 7.2 | – |
| Antibody 25 scFv (scFv, V domains shown, not shown: small tags and cut ends, Purified scFv) VH: QVQLVQSGAEVKKPGATVKLSCKVYGYIFTDYNIYWVRQAPGKGLEWMGLIDPDNGETFYAEKFQGRATMTADTSSDRAYMELTSLTFEDTATYYCATVTLKSAKGGYDYWGRGTLVTVSS VL: QSVLTQPPSVSGAPGQRVTISCTGSSSNIGAGYDVHWYQQLPGTAPKLLIYDNFNRPSGVPDRFSGSKSGTSASLAIIGLQTEDEADYYCQSYDSNHKTSPFGTGTKLTVL | – | – | IC50 [5]: 86 nM |
| Antibody 11 IgG (antibody, V domains shown, Whole human IgG (section 1.4, IgG1)) VH: QVQLVQSGAEVKKPGATVKLSCKVYGYIFTDYNIYWVRQAPGKGLEWMGLIDPDNGETFYAEKFQGRATMTADTSSDRAYMELTSLTFEDTATYYCATVMGKWIKGGYDYWGRGTLVTVSS VL: QSVLTQPPSVSGAPGQRVTISCTGSSSNIGAGYDVHWYQQLPGTAPKLLIYDNFNRPSGVPDRFSGSKSGTSASLAIIGLQTEDEADYYCQSYDSPTLTSPFGTGTKLTVL | 0.153 | 9.3 | IC50 (read off the curve), IgE/FcεRI-mediated cytotoxicity [6]: ~0.1 nM |
| Antibody 26 scFv (scFv, V domains shown, not shown: small tags and cut ends, Purified scFv) VH: QVQLVQSGAEVKKPGATVKLSCKVYGYIFTDYNIYWVRQAPGKGLEWMGLIDPDNGETFYAEKFQGRATMTADTSSDRAYMELTSLTFEDTATYYCATVSLKEAKGGYDYWGRGTLVTVSS VL: QSVLTQPPSVSGAPGQRVTISCTGSSSNIGAGYDVHWYQQLPGTAPKLLIYDNFNRPSGVPDRFSGSKSGTSASLAIIGLQTEDEADYYCQSYDSASRHAPFGTGTKLTVL | – | – | IC50 [5]: 121 nM |
